According to IntAct's records for PubMed 36931259:

B1: 14-3-3 protein sigma (Homo sapiens), P31947 (parent)
chain: MERASLIQKAKLAEQAERYEDMAAFMKGAVEKGEELSCEERNLLSVAYKNVVGGQRAAWRVLSSIEQKSNEEGSEEKGPEVREYREKVETELQGVCDTVLGLLDSHLIKEAGDAESRVFYLKMKGDYYRYLAEVATGDDKKRIIDSARSAYQEAMDISKKEMPPTNPIRLGLALNFSVFHYEIANSPEEAISLAKTTFDEAMADLHTLSEDSYKDSTLIMQLLRDNLTLWTADNAGEEGGEAPQEPQS
partner: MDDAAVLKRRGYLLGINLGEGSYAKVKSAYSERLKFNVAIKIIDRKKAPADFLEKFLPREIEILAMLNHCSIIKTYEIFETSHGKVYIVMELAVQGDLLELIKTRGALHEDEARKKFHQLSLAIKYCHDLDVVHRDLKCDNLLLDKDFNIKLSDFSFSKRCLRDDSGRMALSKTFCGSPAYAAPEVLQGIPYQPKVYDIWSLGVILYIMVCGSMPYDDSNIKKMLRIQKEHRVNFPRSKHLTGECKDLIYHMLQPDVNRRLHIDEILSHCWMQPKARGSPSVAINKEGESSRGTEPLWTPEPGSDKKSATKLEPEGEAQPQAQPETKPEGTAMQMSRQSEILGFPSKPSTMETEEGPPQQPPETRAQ
B2: 14-3-3 protein sigma (Homo sapiens), P31947 (parent)
chain: B1 chain
partner: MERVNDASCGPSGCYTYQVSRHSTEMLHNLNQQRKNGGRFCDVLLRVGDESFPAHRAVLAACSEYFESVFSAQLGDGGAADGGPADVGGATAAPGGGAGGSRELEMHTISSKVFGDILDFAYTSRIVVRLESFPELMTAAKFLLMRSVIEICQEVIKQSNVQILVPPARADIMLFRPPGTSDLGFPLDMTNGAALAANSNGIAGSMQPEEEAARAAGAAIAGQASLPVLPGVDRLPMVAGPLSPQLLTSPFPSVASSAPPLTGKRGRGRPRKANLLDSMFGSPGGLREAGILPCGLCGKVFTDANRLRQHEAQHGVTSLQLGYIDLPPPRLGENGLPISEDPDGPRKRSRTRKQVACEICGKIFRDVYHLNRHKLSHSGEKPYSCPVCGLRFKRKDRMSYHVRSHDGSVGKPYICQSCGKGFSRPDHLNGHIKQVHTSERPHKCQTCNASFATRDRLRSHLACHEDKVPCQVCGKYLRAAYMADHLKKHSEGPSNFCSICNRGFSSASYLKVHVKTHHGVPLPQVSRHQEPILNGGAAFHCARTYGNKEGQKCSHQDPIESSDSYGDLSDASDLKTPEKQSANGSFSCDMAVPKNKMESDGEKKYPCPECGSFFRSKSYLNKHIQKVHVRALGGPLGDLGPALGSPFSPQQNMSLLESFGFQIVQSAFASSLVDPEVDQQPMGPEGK
B3: Kinesin-like protein KIF1C (Homo sapiens), O43896 (parent)
chain: MAGASVKVAVRVRPFNARETSQDAKCVVSMQGNTTSIINPKQSKDAPKSFTFDYSYWSHTSTEDPQFASQQQVYRDIGEEMLLHAFEGYNVCIFAYGQTGAGKSYTMMGRQEPGQQGIVPQLCEDLFSRVSENQSAQLSYSVEVSYMEIYCERVRDLLNPKSRGSLRVREHPILGPYVQDLSKLAVTSYADIADLMDCGNKARTVAATNMNETSSRSHAVFTIVFTQRCHDQLTGLDSEKVSKISLVDLAGSERADSSGARGMRLKEGANINKSLTTLGKVISALADMQSKKRKSDFIPYRDSVLTWLLKENLGGNSRTAMIAALSPADINYEETLSTLRYADRTKQIRCNAIINEDPNARLIRELQEEVARLRELLMAQGLSASALEGLKTEEGSVRGALPAVSSPPAPVSPSSPTTHNGELEPSFSPNTESQIGPEEAMERLQETEKIIAELNETWEEKLRKTEALRMEREALLAEMGVAVREDGGTVGVFSPKKTPHLVNLNEDPLMSECLLYHIKDGVTRVGQVDMDIKLTGQFIREQHCLFRSIPQPDGEVVVTLEPCEGAETYVNGKLVTEPLVLKSGNRIVMGKNHVFRFNHPEQARLERERGVPPPPGPPSEPVDWNFAQKELLEQQGIDIKLEMEKRLQDLENQYRKEKEEADLLLEQQRLYADSDSGDDSDKRSCEESWRLISSLREQLPPTTVQTIVKRCGLPSSGKRRAPRRVYQIPQRRRLQGKDPRWATMADLKMQAVKEICYEVALADFRHGRAEIEALAALKMRELCRTYGKPDGPGDAWRAVARDVWDTVGEEEGGGAGSGGGSEEGARGAEVEDLRAHIDKLTGILQEVKLQNSSKDRELQALRDRMLRMERVIPLAQDHEDENEEGGEVPWAPPEGSEAAEEAAPSDRMPSARPPSPPLSSWERVSRLMEEDPAFRRGRLRWLKQEQLRLQGLQGSGGRGGGLRRPPARFVPPHDCKLRFPFKSNPQHRESWPGMGSGEAPTPLQPPEEVTPHPATPARRPPSPRRSHHPRRNSLDGGGRSRGAGSAQPEPQHFQPKKHNSYPQPPQPYPAQRPPGPRYPPYTTPPRMRRQRSAPDLKESGAAV
partner: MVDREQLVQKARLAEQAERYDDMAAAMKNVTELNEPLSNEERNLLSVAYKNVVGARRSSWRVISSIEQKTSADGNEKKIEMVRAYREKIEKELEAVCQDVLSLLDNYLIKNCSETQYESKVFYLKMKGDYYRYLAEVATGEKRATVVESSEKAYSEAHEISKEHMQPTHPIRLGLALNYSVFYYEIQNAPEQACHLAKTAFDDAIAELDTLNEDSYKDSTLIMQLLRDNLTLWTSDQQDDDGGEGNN
B4: 14-3-3 protein sigma (Homo sapiens), P31947 (parent)
chain: B1 chain
partner: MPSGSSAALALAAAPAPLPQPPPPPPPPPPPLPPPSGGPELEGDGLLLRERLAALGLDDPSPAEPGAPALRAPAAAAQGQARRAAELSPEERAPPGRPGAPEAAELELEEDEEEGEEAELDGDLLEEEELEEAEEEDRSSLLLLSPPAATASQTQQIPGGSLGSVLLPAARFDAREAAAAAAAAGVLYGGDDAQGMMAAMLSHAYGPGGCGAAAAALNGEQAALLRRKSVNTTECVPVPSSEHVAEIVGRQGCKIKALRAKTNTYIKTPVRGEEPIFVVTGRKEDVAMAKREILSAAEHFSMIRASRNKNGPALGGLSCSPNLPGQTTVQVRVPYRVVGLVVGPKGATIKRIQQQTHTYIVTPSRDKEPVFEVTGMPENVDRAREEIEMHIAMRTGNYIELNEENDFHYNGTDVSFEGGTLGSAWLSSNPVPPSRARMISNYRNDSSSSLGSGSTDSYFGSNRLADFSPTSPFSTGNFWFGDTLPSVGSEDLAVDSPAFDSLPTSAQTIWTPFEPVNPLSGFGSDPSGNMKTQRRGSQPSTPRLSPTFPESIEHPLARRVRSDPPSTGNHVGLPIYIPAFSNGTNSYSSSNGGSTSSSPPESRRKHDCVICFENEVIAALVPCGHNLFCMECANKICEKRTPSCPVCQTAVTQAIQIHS
B5: 14-3-3 protein sigma (Homo sapiens), P31947 (parent)
chain: B1 chain
partner: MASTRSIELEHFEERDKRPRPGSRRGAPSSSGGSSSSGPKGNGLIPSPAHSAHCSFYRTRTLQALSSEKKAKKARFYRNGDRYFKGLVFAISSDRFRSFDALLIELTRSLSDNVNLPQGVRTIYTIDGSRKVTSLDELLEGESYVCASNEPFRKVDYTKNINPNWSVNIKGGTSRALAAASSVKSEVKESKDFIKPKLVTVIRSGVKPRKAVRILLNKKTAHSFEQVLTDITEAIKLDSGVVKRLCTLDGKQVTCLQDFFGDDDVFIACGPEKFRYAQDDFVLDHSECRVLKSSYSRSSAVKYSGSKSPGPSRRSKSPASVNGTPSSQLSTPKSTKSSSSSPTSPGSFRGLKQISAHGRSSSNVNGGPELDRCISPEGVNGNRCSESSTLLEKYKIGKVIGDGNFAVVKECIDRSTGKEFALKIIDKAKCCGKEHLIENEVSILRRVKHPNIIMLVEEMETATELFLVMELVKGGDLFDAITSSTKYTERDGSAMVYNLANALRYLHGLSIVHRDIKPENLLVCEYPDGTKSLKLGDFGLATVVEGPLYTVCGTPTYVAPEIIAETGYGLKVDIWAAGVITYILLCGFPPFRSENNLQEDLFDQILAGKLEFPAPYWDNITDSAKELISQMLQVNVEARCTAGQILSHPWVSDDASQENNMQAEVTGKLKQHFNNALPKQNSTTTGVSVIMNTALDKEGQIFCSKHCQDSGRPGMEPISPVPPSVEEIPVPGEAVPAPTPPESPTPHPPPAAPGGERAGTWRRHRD
B6: 14-3-3 protein sigma (Homo sapiens), P31947 (parent)
chain: B1 chain
partner: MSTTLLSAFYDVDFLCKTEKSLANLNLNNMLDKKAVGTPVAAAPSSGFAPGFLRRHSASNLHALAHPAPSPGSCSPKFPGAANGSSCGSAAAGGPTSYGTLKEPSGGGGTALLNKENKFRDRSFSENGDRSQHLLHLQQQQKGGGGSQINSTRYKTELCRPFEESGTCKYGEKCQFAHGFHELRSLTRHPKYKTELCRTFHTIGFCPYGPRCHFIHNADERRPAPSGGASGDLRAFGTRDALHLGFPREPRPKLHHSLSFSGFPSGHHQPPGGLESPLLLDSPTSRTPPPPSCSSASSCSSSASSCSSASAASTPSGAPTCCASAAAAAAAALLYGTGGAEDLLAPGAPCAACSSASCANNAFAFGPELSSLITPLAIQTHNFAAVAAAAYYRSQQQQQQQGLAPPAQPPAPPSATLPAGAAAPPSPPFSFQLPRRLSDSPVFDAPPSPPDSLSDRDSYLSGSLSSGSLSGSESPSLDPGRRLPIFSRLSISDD

Variants of: B1
Conditions: with tssk1_human TSSK1B

Variant	effect of a mutation on the interaction
K49E;R56E;V178D	decreasing interaction strength

Variants of: B2
Conditions: with patz1_human PATZ1, Q9HBE1

Variant	effect of a mutation on the interaction
K49E;R56E;V178D	decreasing interaction strength

Variants of: B3
Conditions: with 1433g_human YWHAG

Variant	effect of a mutation on the interaction
S915A;S1033A;S1092A	disrupting interaction strength

Variants of: B4
Conditions: with mex3c_human MEX3C

Variant	effect of a mutation on the interaction
K49E;R56E;V178D	decreasing interaction strength

Variants of: B5
Conditions: with dclk2_human DCLK2, Q8N568

Variant	effect of a mutation on the interaction
K49E;R56E;V178D	decreasing interaction strength

Variants of: B6
Conditions: with tisd_human ZFP36L2, P47974

Variant	effect of a mutation on the interaction
K49E;R56E;V178D	decreasing interaction strength
